From article doi:10.1101/2024.12.16.628271 come the findings set out here.

What is called Kd is the concentration at which binding is half-saturated. High values mean lower affinity, low ones higher affinity. By koff is commonly meant the first-order rate constant of dissociation. A word on the stoichiometry N: it is a count of units in the complex or per binding partner.

In test [1] the target is Corynebacterium glutamicum PafA (proteasome accessory factor A; Pup ligase) (Corynebacterium glutamicum) (UniProt Q8NQE1). Briefly: SEC. In general terms: In gel filtration, larger molecules generally elute earlier.
The target is the same in test [2]. Put plainly: SEC-MALS.
For test [3] the target is unchanged. Briefly: HDX-MS.

As to “Corynebacterium glutamicum PafA (proteasome accessory factor A; Pup ligase) (from UniProt Q8NQE1 1-482) (enzyme)”, in test [1], the Kd is over 1100 µM and the koff amounted to 4.72e-05 s⁻¹. Moreover, the stoichiometry N in test [2] is 2. This substance also showed an average k open of PafA dimer dissociation (HDX-MS, EX1) in test [3] of 0.06 h⁻¹.
